Assay [1] deals with T1, HLA-A0201 on T2 cells without added peptide (human).
T1 construct: Used as the negative target (T2 cells alone) and as the HLA-A0201 partner of the free peptides in the T2 stabilization assay; also called T2 alone; empty T2 cells
Put plainly: T2 stabilization control, flow cytometry: BB7 staining of T2 cells pulsed with the peptide. For orientation: A flow cytometer gives signals particle by particle.
Method: The binding of the mAb to the peptide/HLA-A2 complex was measured by indirect (A) or indirect staining with mAbs conjugated to APC (B).

Assay [2] deals with T2, Ras10-G12C peptide/HLA-A0201 complex on peptide-pulsed T2 cells (human).
T2 construct: also called Ras-G12C
Put plainly: flow cytometry, indirect staining of peptide-pulsed T2 cells (peptide 50 µg/ml).

Assay [3] deals with Ras10-G12D peptide/HLA-A0201 complex on peptide-pulsed T2 cells (human). The description is as above.
Assay [4] has as its target RAS10-G10A peptide/HLA-A0201 complex on peptide-pulsed T2 cells. Put plainly: flow cytometry of T2 cells pulsed with peptide.
The target of assay [5] is T3, Ras10-WT peptide/HLA-A0201 complex on peptide-pulsed T2 cells (human).
T3 construct: also called Ras WT; T2-0142WT
Put plainly: flow cytometry of T2 cells pulsed with peptide.

The target in assay [6] is T4, Ras10-G12V peptide with alanine substitution at position 12/HLA-A0201 complex on peptide-pulsed T2 cells (human).
T4 construct: Position 12 counts on the Ras protein; also called peptide containing an alanine substitution at position 12
Put plainly: flow cytometry of T2 cells pulsed with peptide.

In assay [7] the target is T5, Ras9-G12V peptide/HLA-A0201 complex on peptide-pulsed T2 cells (human).
T5 construct: also called K-Ras9 G12V/HLA A0201; T2-014A1mut
Put plainly: flow cytometry, indirect staining of T2 cells pulsed with 50 ug/ml peptide.

Assay [8] addresses T6, Ras9-WT peptide/HLA-A0201 complex on peptide-pulsed T2 cells (human).
T6 construct: also called T2-0141WT
Described as above.

Assay [9] addresses T7, biotinylated Ras10-G12V/HLA-A0201 complex monomer (human, chain 1: C-terminal BirA substrate peptide (letters not given), enzymatically biotinylated by BirA).
T7 construct: also called Ras G12V/HLA-A0201; Ras-G12V/HLA A0201 complex monomer; not shown: the BirA substrate peptide (BSP) at the C-terminus of the heavy chain
Put plainly: BLI (ForteBio Octet QK), biotinylated pMHC on streptavidin sensor, mAb at 10 µg/mL, 1:1 model partial fit.

Assay [10] addresses T1, HLA-A0201 on T2 cells without added …. Put plainly: flow cytometry of T2 cells without peptide.
The target in assay [11] is T8, biotinylated Ras10-WT/HLA-A0201 complex monomer (human, chain 1: C-terminal BirA substrate peptide (letters not given), enzymatically biotinylated by BirA).
T8 construct: also called Ras wt/HLA-A0201; not shown: the BirA substrate peptide (BSP) at the C-terminus of the heavy chain
Put plainly: BLI (ForteBio Octet QK), biotinylated pMHC on streptavidin sensor. On the technique in general: In BLI a coated tip is dipped into the sample, and binding shifts an interference pattern.

For assay [12], the target named is T3, Ras10-WT peptide/HLA-A0201 complex on …. Put plainly: flow cytometry, scFv phage on peptide-loaded T2 cells, anti-M13 detection.
Assay [13] concerns the target T6, Ras9-WT peptide/HLA-A0201 complex on …. Described as above.
Assay [14] deals with T1, HLA-A0201 on T2 cells without added …. Put plainly: flow cytometry, scFv phage on T2 cells, anti-M13 detection.
The target is the same in assay [15]. Put plainly: T2 stabilization control, flow cytometry: BB7 staining of T2 cells pulsed with the peptide. This is another data set of the same source.
Method: The binding of the mAb to the peptide/HLA-A2 complex was measured by direct staining with mAbs conjugated to APC or by indirect staining with mAbs, followed by secondary goat anti-human IgG1/FITC mAb. The binding of the mAbs was measured by flow cytometry on a FACScalibur (Becton Dickenson) and analyzed with FlowJo 9.6.3 software. […] (F) Antibody by the above peptides to T2 cells was measured.
For assay [16], the target named is RAS10-V9A peptide/HLA-A0201 complex on peptide-pulsed T2 cells. Put plainly: flow cytometry of T2 cells pulsed with peptide.
For assay [17], the target named is RAS10-G13A peptide/HLA-A0201 complex on peptide-pulsed T2 cells. Put plainly: flow cytometry of T2 cells pulsed with peptide.
The target of assay [18] is T8, biotinylated Ras10-WT/HLA-A0201 complex …. Put plainly: BLI (ForteBio Octet QK), biotinylated pMHC on streptavidin sensor, mAb at 10 µg/mL, 1:1 model partial fit.

B1: RAS9-WT peptide (peptide)
peptide: LVVVGAGGV
notes: Free synthetic peptide
As to B1, the binding result in assay [1] is “binds”.

B2: Ras mAb #4, full-length human IgG1 (antibody, V domains shown)
VH: EVQLVQSGAEVKKPGASVKVSCKASGYTFTAYYLHWLRQAPGQGLEWMGWMNTNNGATRYAQKFQDRVTMTRDTSINTAYMEMSGLSSDDTAMYYCARGDISQDFADVWGQGTLVTVSS
VL: NFMLTQPHSVSESPGKTVTISCTGSSGSIASNYVQWYQQRPGSAPTILIYEDNKRPSGVPDRFSGSIDSSSNSASLTISGLKTGDEADYYCQSYDDINHWVFGGGTKLTVLG
notes: also called clone #4; Ras antibody #4
In the case of B2, the binding result in [2] was “no binding”; in assay [3], “no binding”; in [4] it was “no binding (tested: 10 ug/ml)”; in [5], “no binding (tested: 10 ug/ml)”; in assay [6], “no binding (tested: 10 ug/ml)”; in assay [7], “no binding (tested: 10 ug/ml)”. In addition, the binding result in [8] is “no binding (tested: 10 ug/ml)”; in assay [10] it was “no binding (tested: 10 ug/ml)”; in assay [11], “no binding (tested: 10 µg/mL)”. In addition, binding in assay [9] was put at a Kd of 9.19 nM. Moreover, in assay [9], the off-rate (koff) (usually the first-order rate constant of dissociation) is 0.00363 s⁻¹. In addition, the kon – broadly, the second-order rate constant of association – in assay [9] came out at 396000 M⁻¹ s⁻¹.

B3: scFv phage clone #2 (scFv)
scFv: QSVLTQPPSVSGAPGQRVTISCTGSSSNIGAGYDVHWYQQLPGTAPKLLIYGNSNRPSGVPDRFSGSKSGTSASLAITGLQAEDEADYYCQSYDSSLSGSVFGTGTKVTVLGSRGGGGSGGGGSGGGGSLEMAVQLVQSGAEVKKPGSSVKVSCKASGGTFSSYTINWVRQAPGQGLEWMGGFIPISGTVNYAQKFQGRVTITADESTSTAYMELSSLRSEDTAVYYCARPLDWTEDIWGQGTLVTVSS
notes: also called K-Ras G12V/HLA A0201 specific phage clone
For B3, the binding result in assay [12], in assay [13] and in [14] was “no binding” in each case.

B4: Ras mAb #2, full-length human IgG1 (antibody, V domains shown)
VH: QVQLVQSGAEVKKPGSSVKVSCKASGGTFSSYTINWVRQAPGQGLEWMGGFIPISGTVNYAQKFQGRVTITADESTSTAYMELSSLRSEDTAVYYCARPLDWTEDIWGQGTLVTVSS
VL: QSVLTQPPSVSGAPGQRVTISCTGSSSNIGAGYDVHWYQQLPGTAPKLLIYGNSNRPSGVPDRFSGSKSGTSASLAITGLQAEDEADYYCQSYDSSLSGSVFGTGTKVTVLG
notes: also called clone #2; Ras antibody #2
B4: the binding result in assay [3] is reported as “no binding”; in assay [5], “no binding (tested: 10 ug/ml)”; in assay [8] it was “no binding (tested: 10 ug/ml)”; in assay [10] it was “no binding (tested: 10 ug/ml)”; in assay [11] it was “no binding (tested: 10 µg/mL)”. In addition, in [9], the Kd (usually the concentration at which binding is half-saturated) is 8.88 nM.

B5: RAS10-G12S peptide (peptide)
peptide: KLVVVGASGV
notes: peptide of the complex m14; also called R10-G12S
With B5, the binding result in assay [15] is listed as “binds”.

B6: Ras10-A11G peptide (peptide)
peptide: KLVVVGGVGV
notes: Position 11 counts on the Ras protein
For the molecule B6, in [15], the binding result is “binds”.

B7: Ras mAb #7, full-length human IgG1 (antibody, V domains shown)
VH: EVQLVESGAEVKEPGSSVKVSCKASGGTFSSYGISWIRQAPGQGLEWMGEIIPIFGTPNYAQKFQGRVTITADESTSTAYVELSSLRSDDTAVYYCARSYYGYFDGWGQGTLVTVSS
VL: DIQMTQSPSSLSASVGDRVTITCQASQDISNYLNWYQQKPGKAPKLLIYDASNLETGVPSRFSGSGSGTDFTFTISSLQPDDFATYYCQQYKSYPLTFGGGTKVEIKR
notes: also called clone #7; Ras antibody #7
Regarding B7, the binding result in [2] is “no binding”; in assay [3], “no binding”; in assay [16] it was “binds”; in [17] it was “binds”; in [7], “no binding (tested: 10 ug/ml)”; in assay [8] it was “no binding (tested: 10 ug/ml)”. The binding result in assay [10] is on record as “no binding (tested: 10 ug/ml)”. Moreover, the results for the Kd in assay [9] and in [18] were 8.77 nM and 65.1 nM, respectively. The koff was 0.000746 s⁻¹ in [9] and 0.00153 s⁻¹ in [18]. The kon was determined as 85000 M⁻¹ s⁻¹ in assay [9] and 23400 M⁻¹ s⁻¹ in assay [18].
